Results as given in patent US20250197882A1, “USE OF JAZ PROTEIN AND ITS DERIVATIVES IN AGRICULTURAL PEST PREVENTION AND CONTROL” (priority 2022, published 2025).

Tests used:
SfAPN4 = test: Yeast two-hybrid (Y2H) interaction with SfAPN4; format: binding, Spodoptera frugiperda; conditions: Y2HGold yeast, quadruple dropout medium, FIG. 4B
Description: DNA fragments shown in PGADT7::GhJAZ8 (SEQ ID No. 3), PGADT7::GhJAZ8^LGK (SEQ ID No. 25), PGADT7::GhJAZ13 (SEQ ID No. 8), PGADT7::GhJAZ14 (SEQ ID No. 10), PGADT7::GhJAZ24 (SEQ ID No. 12), PGADT7::GhJAZ27 (SEQ ID No. 14) and PGADT7::GhJAZ28 (SEQ ID No. 16) were inserted between the BamH1 and EcoR1 of a PGADT7 plasmid (Unibio Biotech, VT1639), respectively, to obtain pGADT7+GhJAZ8, pGADT7+GhJAZ8^LGK, pGADT7+GhJAZ13, pGADT7+GhJAZ14, pGADT7+GhJAZ24, pGADT7+GhJAZ27 and pGADT7+GhJAZ28.
The DNA fragment shown in PGBKT7: SfAPN4 (SEQ ID NO: 22) was inserted between BamH1 and EcoR1 of a pGBKT7 plasmid (Unibio Biotech, catalog number: VT1638), to obtain a vector plasmid, named pGBKT7+SfAPN4.
The mixture was centrifuged at 5000 rpm for 30 seconds to discard the supernatant, and the pellet was resuspended in ddH2O, coated on a double dropout medium (SD/-Leu/-Trp) and cultured at 28° C. for 2 days. After occurrence of the clonal plaques, the clones were selected and placed a quadruple dropout medium (SD Ade/-His/-Leu/-Trp, with Aba and X-α-gal added) and the interaction was observed after 4 days of culture at 28° C.

[1] = tested on: fall armyworm (Spodoptera frugiperda); test: Feed film-covering bioassay, larval growth inhibition, fall armyworm; format: in vivo; conditions: protein on artificial feed, after 7 days, FIGS. 6C, 6E
Method: (§1) Treatment group: add the prepared insect feed (Henan Jiyuan Baiyun Industrial Co., Ltd., product name: Grassland armyworm artificial feed) to a 24 well plate, with a volume of 200 microliters per well; use a film covering method to add diluted GhJAZ8 protein solutions of different concentrations (diluted with PBS) to the surface of the feed, and shake in the incubator until the protein is immersed in the culture medium. Take grassland armyworm and cotton bollworm larvae that have not been fed within the first 12 hours of incubation as experimental subjects, and place them in a culture box, with each concentration of protein applied to 100 larvae. Set 16 replicates for each protein concentration and 3 parallel measurement groups for each dose. Control group: different from the experimental group, PBS solution was added to the surface of the feed using a film covering method, and the rest were the same. After 7 days, age and weight will be recorded for statistical analysis. [formula]

[2] = tested on: cotton bollworm (Helicoverpa armigera); test: Feed film-covering bioassay, larval growth inhibition, cotton bollworm; format: in vivo; conditions: protein on artificial feed, after 7 days, FIGS. 6D, 6F
Method: as §1

[3] = tested on: Sf9 ovarian cell line of Spodoptera frugiperda; format: cell-based
Description: Using insect cell lines toxicity testing and mechanism of action research of insecticides, as a new detection method, has the advantages of good target homogeneity, easy control of experimental conditions, and low screening costs compared to traditional bioassay methods. It is suitable for toxicological research of insecticidally active substances. In recent years, scholars at home and abroad have conducted extensive research on the activity of plant natural active ingredients on insect cells, and have achieved many research results of the action mechanism of plant natural active ingredients on insect cells, showing a good correlation between experimental results and in vivo toxicity testing and field experiments.
Fluorescence staining experiment: toxic effect of GhJAZ protein on Sf9 cell line (CL-0205, Procell) was detected using a Calcein/PI Cell Viability and Cytotoxicity Detection kit (Catalogue No.: C2015L, Beyotime, China). The Calcein/PI Cell Activity and Cytotoxicity Detection Kit is a very convenient kit for detecting the viability of animal cells based on Calcein AM (Calcein AM) and PI (Propidium Iodide) dual fluorescence staining. The specific steps are as follows: Adherent cells were blown and transferred to a 15 mL EP tube, centrifuged at 860-870 rpm for 5 minutes. […] After 30 minutes of culture, fluorescence microscopy images were taken. […]

Chain of SfAPN4 (as listed by the source): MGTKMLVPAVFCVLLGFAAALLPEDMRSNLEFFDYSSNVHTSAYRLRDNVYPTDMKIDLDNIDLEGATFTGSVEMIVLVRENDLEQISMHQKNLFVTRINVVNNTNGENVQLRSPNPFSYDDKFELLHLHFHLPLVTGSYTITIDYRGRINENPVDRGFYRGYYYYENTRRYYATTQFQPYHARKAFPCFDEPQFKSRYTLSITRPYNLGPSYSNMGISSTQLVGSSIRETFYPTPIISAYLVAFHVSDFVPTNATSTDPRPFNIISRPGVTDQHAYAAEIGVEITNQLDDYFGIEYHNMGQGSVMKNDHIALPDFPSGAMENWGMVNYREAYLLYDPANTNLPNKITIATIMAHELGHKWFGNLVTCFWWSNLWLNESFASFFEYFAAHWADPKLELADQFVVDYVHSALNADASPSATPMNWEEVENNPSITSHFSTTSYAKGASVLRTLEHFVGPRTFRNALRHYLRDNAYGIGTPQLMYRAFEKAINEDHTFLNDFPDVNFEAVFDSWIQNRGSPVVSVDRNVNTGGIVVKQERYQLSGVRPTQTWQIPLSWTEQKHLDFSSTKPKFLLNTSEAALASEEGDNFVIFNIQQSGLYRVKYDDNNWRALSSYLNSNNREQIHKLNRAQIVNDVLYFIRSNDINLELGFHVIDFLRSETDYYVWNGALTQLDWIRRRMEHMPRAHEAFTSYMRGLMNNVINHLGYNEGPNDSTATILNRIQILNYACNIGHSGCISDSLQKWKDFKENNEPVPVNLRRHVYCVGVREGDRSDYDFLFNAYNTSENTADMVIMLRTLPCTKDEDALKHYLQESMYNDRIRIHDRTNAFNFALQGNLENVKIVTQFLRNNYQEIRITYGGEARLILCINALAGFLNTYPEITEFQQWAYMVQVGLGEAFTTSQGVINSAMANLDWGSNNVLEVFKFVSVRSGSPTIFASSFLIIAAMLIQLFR

B1: GhJAZ8^LGK: GhJAZ8 with NGR domain mutated, N43G44R45 to L43G44K45, coding sequence SEQ ID No. 25 (protein)
chain: MRRNCNLELRLLPSSYPSDSHDMMEERIESPKTQQQQLTIFYLGKVCVSDVTELQAKAILMLANRERDERMKSPTGWEPVSPTLKSQVKCPNTALSMKRSLQRFLQKRKTRIQATSPYH
In the case of B1, the “interaction with SfAPN4 (Y2H)” value (SfAPN4) is reported as “loses interaction”, the “growth inhibition of fall armyworm larvae” value [1] is reported as “weakened” and the “growth inhibition of cotton bollworm larvae” value [2] is reported as “weakened”.

B2: GhJAZ5: cotton JAZ protein, SEQ ID NO: 1, expressed in E. coli from pET-30a-GhJAZ5 (protein)
chain: MSSCSESTAMKPARSPEKPSFAQTCNLLSQYLKEKGSFGDLSLGMTCNVEANGTPVVPPPTMNLFPLNDKSDDVCGRNGGNPKNLTSMDLFPQQAGLASKDDSPNKLEPQTAPMTIFYGGQVIVFNDFPANKAKEIMLLASNSSSQSNNSFNPIPFTSSIARSPIESSIGVPPTSKPVHPAQRAVPGDLPIARRASLHRFLEKRKDRITAKAPYQINNSAAAPSLSGDNKSWLGLAAQSP
B2 was tested, and the “cytotoxicity on Sf9 cells” value [3] was “certain cytotoxic effects”.

B3: GhJAZ16: cotton JAZ protein, SEQ ID NO: 5, expressed from pET-30a-GhJAZ16 (protein)
chain: MERDFIGLRSKNAAITIKVEPSNAQPDDSVLLRGSGMQLSFSNKVSTVPQFLSFDGARDDKPRKATHDTLLSSGFMTIPAADSNKKPHPGLTQKQGGNHYAATTYGLQQLDGHQSRLSHEARIFPSSSQPNHTITVSMNTPLLQPHLASPGQNIIGHTINPQPFTGVPIMAAPVSVVPPSSPIIGTTDLRNAAKSSRAPAQLTIFYAGSVCVYDDVSPDKAQAIMLLAGNVSSTTQSKTAPVTQPQTHIPRPCTLSPFSGLPNHLSVTSHVSLQPVAGSSGTNELTAATRIGALASTNNQPDPPKLVNPAVAVPQARKASLARFLEKRKERVSNTSPYNICKRSESGPLASDGISFSVTSAGSSPLQAIN
In the case of B3, the “cytotoxicity on Sf9 cells” value [3] is reported as “certain cytotoxic effects”.
